# Source: article PMC2978731 (PLoS Pathogens, 2010)
# B1: Fab D5 (Fab, V domains shown)
# VH: QVQLVQSGAEVRKPGASVKVSCKASGDTFSSYAISWVRQAPGQGLEWMGGIIPIFGTANYAQAFQGRVTITANESTSTAYMELSSLRSEDTAIYYCARDNPTLLGSDYWGAGTLVTVSS
# VL: DIQMTQSPSTLSASIGDRVTITCRASEGIYHWLAWYQQKPGKAPKLLIYKASSLASGAPSRFSGSGSGTDFTLTISSLQPDDFATYYCQQYSNYPLTFGGGTKLEIK
# notes: also called D5 (Fab format); D5 antibody; source: provided by Joseph Joyce (Merck Research Laboratories)
# B2: IgG D5 (antibody, V domains shown)
# VH: B1 VH
# VL: B1 VL
# notes: also called D5 monoclonal antibody; D5 IgG; source: provided by Joseph Joyce (Merck Research Laboratories); copies: 2 + 2
# Columns and labels:
# [1] = biological target: T1, 5-Helix (tag-less version) (HIV-1 group M subtype B, HXB2 (gp41 …)); test: cell-based or functional assay
# [2] = biological target: T1, 5-Helix (tag-less version); test: ITC; details: both partners purified
# [3] = biological target: T1, 5-Helix (tag-less version); test: ITC; details: both partners purified; remark: listed apart in the source
Binder,"HIV-1 neutralization IC50, Env-pseudotyped virus, 89.6 Env [1] [nM]","HIV-1 neutralization IC50, Env-pseudotyped virus, HXB2 Env [1] [nM]","HIV-1 neutralization IC50, Env-pseudotyped virus, JR CSF Env [1] [nM]","HIV-1 neutralization IC50, Env-pseudotyped virus, SF162 Env [1] [nM]",Kd [2] [nM],stoichiometry N [3]
B1,890,300,640,1300,~10,
B2,2240,230,640,940,< 20,2 5-Helix per D5 IgG
